Measurements from article PMC2615213, “Serum Activity of Platelet-Activating Factor Acetylhydrolase Is a Potential Clinical Marker for Leptospirosis Pulmonary Hemorrhage” (PLoS ONE, 2009).

Tested on: CCCCCCCCCCCCCC(=O)OC[C@H](COP(=O)([O-])OCC[N+](C)(C)C)OC(=O)CCC(=O)Oc1ccc([N+](=O)[O-])cc1
Assay: purified protein
Details: chromogenic substrate; mean of duplicate experiments

Question: Which Km does the source give for “rL-PAF-AH (recombinant His-tag-L-PAF-AH, LA2144) (Leptospira interrogans serovar Lai str. 56601)” here?
Answer: 610 µM

Question: And the kcat?
Answer: 6.61 s⁻¹

Question: What about the kcat/Km of the same substance?
Answer: 10800 M⁻¹ s⁻¹
